{
  "source": "patent US20240401063",
  "about": "“Aptamer for DKK1 and Use Thereof” (APTACURE THERAPEUTICS LIMITED, published 2024)",
  "binders": {"B1": {"name": "Aptdkk-16 (ssDNA)", "DNA": "CGTACGGTCGACGCTAGCTACACGCCATCGGTGCCCTTTTCTCTTCTTGTCTGGGATCCGAGCTCCACGTG"}, "B2": {"name": "Aptdkk-15 (ssDNA)", "DNA": "CGTACGGTCGACGCTAGCACGTTCAGATACCTTTTTTCCCCTTTGTTCTGCCGGGATCCGAGCTCCACGTG"}, "B3": {"name": "Aptdkk-4 (ssDNA)", "DNA": "CGTACGGTCGACGCTAGCTGCACGCTTTTCCCTCCTTTTCTCGTCTGACCGCGGGATCCGAGCTCCACGTG"}, "B4": {"name": "Aptdkk-11 (ssDNA)", "DNA": "CGTACGGTCGACGCTAGCCATCCAGCTCCCTTTATTCCCTCTGTACCCTCCTGGGATCCGAGCTCCACGTG"}, "B5": {"name": "Aptdkk-10 (ssDNA)", "DNA": "CGTACGGTCGACGCTAGCACTCTCCACGTTTTTCCACCTCCTTCCTCCTTTGCGGATCCGAGCTCCACGTG"}, "B6": {"name": "Aptdkk-7 (ssDNA)", "DNA": "CGTACGGTCGACGCTAGCAGCCCCCTTCCTTTCTTCCTCGACCTCCCTCCGCAGGATCCGAGCTCCACGTG"}, "B7": {"name": "Aptdkk-2 (ssDNA)", "DNA": "CGTACGGTCGACGCTAGCTGGTGTTGGGGTGGGTTGGTGGGTATTTTGGCGGTGGATCCGAGCTCCACGTG"}, "B8": {"name": "Aptdkk-14 (ssDNA)", "DNA": "CGTACGGTCGACGCTAGCCTGTGCAGTTGGTTGGTTATGGTTGGGACTGTCAGGATCCGAGCTCCACGTG"}, "B9": {"name": "Aptdkk-17 (ssDNA)", "DNA": "CGTACGGTCGACGCTAGCTACTTCTCCACGTCTCTTTCCCTGTCCCCTTCGCAGGATCCGAGCTCCACGTG"}, "B10": {"name": "Aptdkk-9 (ssDNA)", "DNA": "CGTACGGTCGACGCTAGCTACACCCCTTCCTGTTCTATTCTTCCTGCCTTGCGGGATCCGAGCTCCACGTG"}, "B11": {"name": "Aptdkk-8 (ssDNA)", "DNA": "CGTACGGTCGACGCTAGCTGCCACCCCTGTTTTCCACATTTTCCTCGACCGCGGGATCCGAGCTCCACGTG"}, "B12": {"name": "Aptdkk-18 (ssDNA)", "DNA": "CGTACGGTCGACGCTAGCTCCACCCAATTCTCTTCCCGTCTTTCCTGCACATGGGATCCGAGCTCCACGTG"}, "B13": {"name": "Aptdkk-12 (ssDNA)", "DNA": "CGTACGGTCGACGCTAGCTCCCCTCATAATCCGACTTTTTCCCTCCCCCTCCCGGATCCGAGCTCCACGTG"}, "B14": {"name": "Aptdkk-13 (ssDNA)", "DNA": "CGTACGGTCGACGCTAGCTGGTGTGGGGGTGGGTGGTGGGTTGTATCGTTTGAGGATCCGAGCTCCACGTG"}, "B15": {"name": "Aptdkk-19 (ssDNA)", "DNA": "CGTACGGTCGACGCTAGCATAGGTTGGGTAGGTTGGTTGCTTTTTTTGTCGCGGGATCCGAGCTCCACGTG"}, "B16": {"name": "Aptdkk-1 (ssDNA)", "DNA": "CGTACGGTCGACGCTAGCTGTGGTTATGGGGTTGGTGGGTGGGTTCTTACGGAGGATCCGAGCTCCACGTG"}, "B17": {"name": "Aptdkk-6 (ssDNA)", "DNA": "CGTACGGTCGACGCTAGCCCGGTTGCAATGGTTGGGGTGGTTGGTTTTGCATGGGATCCGAGCTCCACGTG"}},
  "data": [
    {"target": "T1, DKK1 (Dickkopf-1), full-length (Homo sapiens, UniProt O94907 SEQ:32-266)", "T1 sequence": "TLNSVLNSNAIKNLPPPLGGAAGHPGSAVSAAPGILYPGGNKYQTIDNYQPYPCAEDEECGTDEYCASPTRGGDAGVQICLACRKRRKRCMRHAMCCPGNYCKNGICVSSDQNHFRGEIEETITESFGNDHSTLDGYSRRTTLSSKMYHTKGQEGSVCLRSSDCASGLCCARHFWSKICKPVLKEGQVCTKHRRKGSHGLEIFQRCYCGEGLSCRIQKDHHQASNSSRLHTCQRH", "assay": "ELONA; specificity High at 1 uM; Kd not given", "settings": "tags: His6; label: biotin", "protocol": "(§1) Enzyme linked oligonucleotide assay (ELONA): 160 ng DKK1 per well and negative target were coated in a 96-well microtiter plate by incubating at 4° C. overnight through hydrophobic interaction. Non-binding sites in wells were blocked with bull serum albumin (BSA) at room temperature for 1 hour, and then washed with DNA-binding buffer 4 times for 5 minutes each. The biotinylated aptamer candidates/RS with an appropriate concentration were added to each well and incubated at room temperature for 45 minutes with continuous gentle shaking. After binding, the plate was washed with washing buffer 4 times for 5 minutes each to remove non-specific and weakly binding sequences. 100 μl streptavidin-horseradish peroxidase (HRP) (1:10000 dilute into PBST+0.1% BSA) was added to each well, and incubated for 30 minutes, and washed for 4 times with the binding buffer. 50 μl 3,3′,5,5′-tetramethylbenzidine (TMB) as a HRP substrate was added to each well and incubated for 20 minutes. 50 μl 2M H₂SO₄ was added to terminate the reaction. The absorbance at 450 nm was measured with a microplate reader (Molecular Device i3x). Data was analyzed with Origin software. A binding curve was generated and KD was calculated with a non-linear curve fitting model logistic.\n(§2) The specificity of 1 μM of each adapter/RS against DKK-1 was determined for 20 potential sequences with the highest occurrence rate (Table 4) by ELONA and the absorbance at 450 nm was detected.", "values": [
      {"binder": "B1", "binding result": "binds"},
      {"binder": "B2", "binding result": "binds"},
      {"binder": "B3", "binding result": "binds"},
      {"binder": "B4", "binding result": "binds"},
      {"binder": "B5", "binding result": "binds"},
      {"binder": "B6", "binding result": "binds"}
    ]},
    {"target": "T1, DKK1 (Dickkopf-1), full-length", "assay": "ELONA; specificity High at 1 uM; Kd not given", "settings": "tags: His6; label: biotin; G-rich, predicted G4", "protocol": "as §1, §2", "values": [
      {"binder": "B7", "binding result": "binds"},
      {"binder": "B8", "binding result": "binds"}
    ]},
    {"target": "T1, DKK1 (Dickkopf-1), full-length", "assay": "ELONA; 1 nM: no or slight difference from aptdkk5", "settings": "tags: His6; label: biotin", "protocol": "as §1\nThe specificity of 100 nM/i nM of each aptamer/RS against DKK-1 was determined for 24 truncated sequences of aptdkk5 and original aptdkk5 (Table 6) by ELONA and the absorbance at 450 nm was detected. When the concentration was 100 nM, there was no significant difference or slight difference in the absorbance between apt5-1-38, apt5-1-35, apt5-1-62, or apt5-1-59 and the original aptdkk5 (FIG. 8a). When the concentration was 1 nM, there was no significant difference or slight difference in the absorbance between apt5-1-50, apt5-1-47, apt5-1-44, apt5-1-41, apt5-1-38, apt5-1-35, apt5-1-65, apt5-1-62, apt5-1-59, or apt5-1-53 and the original aptdkk5 (FIG. 8b). After the specificity and length of these aptamers were considered, apt5-1-44, apt5-1-41, apt5-1-38, and apt5-1-35 were selected to determine the binding affinity against DKK1.", "values": [
      {"binder": "CGTACGGTCGACGCTAGCTGGTGGTTGGGGTGGGTGGTGGTTGTTCG (ssDNA)", "note": "[Apt5-1-47]", "binding result": "binds"},
      {"binder": "CGTACGGTCGACGCTAGCTGGTGGTTGGGGTGGGTGGTGGTTGTTCGTGG (ssDNA)", "note": "[Apt5-1-50]", "binding result": "binds"}
    ]},
    {"target": "T1, DKK1 (Dickkopf-1), full-length", "assay": "BLI", "settings": "tags: His6", "protocol": "The specificity against DKK-1 was determined with 1 μM of each aptamer/RS for 19 potential sequences with the highest occurrence rate in the 30th round by ELONA. […] Next, the binding affinity against DKK1 was determined for candidate aptamers by BLL. DKK1 protein was applied at gradient concentrations of 0 nM, 3.125 nM, 6.25 nM, 12.5 nM, 25 nM, 50 nM, 100 nM, and 200 nM.", "units": {"Kd": "nM"}, "values": [
      {"binder": "TCTGCTTTCACGTACTAGGTTGGTTAGGTTGGTGT (ssDNA)", "note": "[D30-18]", "Kd": 20.8},
      {"binder": "TGCATCTTCCTTCTTCGATTCTATGCTCGGCCGCG (ssDNA)", "note": "[D30-8]", "Kd": 3.19},
      {"binder": "ATGTAAATCGATTCCTCTGGCCGCATCGCGCTTTA (ssDNA)", "note": "[D30-16]", "Kd": 1.9},
      {"binder": "AATTTCGATAGTCCATGTGTTCAGTGCCTGTGTGT (ssDNA)", "note": "[D30-15]", "Kd": 2.92},
      {"binder": "CAGTCTTAGTGCTCATGTGTTCAGTGTTTGTGTGT (ssDNA)", "note": "[D30-17]", "Kd": 20.1},
      {"binder": "CTTCTTGTCCCTCGATGTGTTCAGTGTTTGTGTGT (ssDNA)", "note": "[D30-3]", "Kd": 2.64},
      {"binder": "ATGTCCATTTGCGAGTAGGTGTTTGAGTGAGGTGA (ssDNA)", "note": "[D30-1]", "Kd": 5.34},
      {"binder": "CTGTTCTAACGTGGTTGACCCCCCTTTGCTTTGAC (ssDNA)", "note": "[D30-9]", "Kd": 2.42},
      {"binder": "TATGGTTTCCCTACATGTGTTCAGTGTTTGTGTGT (ssDNA)", "note": "[D30-13]", "Kd": 1.67},
      {"binder": "TGCTGAACTTTACGTGATTCTAGTCGCTGACCGCG (ssDNA)", "note": "[D30-4]", "Kd": 23},
      {"binder": "TCCTCTTCCTTTGGCTAGGTTGGTTAGGTTGGTGC (ssDNA)", "note": "[D30-10]", "Kd": 1.97},
      {"binder": "TACCTTCTGCTCGATGTGTTCAGTGTGTTGTGTGT (ssDNA)", "note": "[D30-19]", "Kd": 20.1},
      {"binder": "ATGCCCCTCCTCTGTTGAACTGTTTACCCCTTTGA (ssDNA)", "note": "[D30-14]", "Kd": 2.54},
      {"binder": "TCGTGCTTGATTCCATGCTTGGCCGCCTTCTCGTG (ssDNA)", "note": "[D30-12]", "Kd": 5.99},
      {"binder": "CATTGTCTCAGCGCATGTGTTCAGTTCTTGTGTGT (ssDNA)", "note": "[D30-2]", "Kd": 2.89},
      {"binder": "TGTAGATAGAGGGGTTGGTGTGGTTGGCGCTATCC (ssDNA)", "note": "[D30-7]", "Kd": 5.5}
    ]},
    {"target": "T1, DKK1 (Dickkopf-1), full-length", "assay": "ELONA; room temperature", "settings": "tags: His6; label: biotin", "protocol": "as §1\n(§3) Aptamer candidates with significant specificity and Candidate 3 as a negative control were used to determine the binding affinity against DKK1. Candidates 1, 2, 4, and 14 had concentrations of (0, 62.5 nM, 125 nM, 250 nM, 500 nM, 1000 nM, 2000 nM, and 4000 nM), Candidates 7, 10, 15, and 16 had concentrations of (0, 23.44 nM, 46.86 nM, 93.75 nM, 187.5 nM, 375 nM, 750 nM, and 1500 nM), and other candidates had concentrations of (0, 0.18 nM, 0.74 nM, 2.96 nM, 11.84 nM, 47.35 nM, 189.39 nM, and 757.58 nM). […] Six candidates (aptdkk-5, 13, 20, 19, 6, and 1) were rich in G. The other five sequences (aptdkk-9, 18, 12, 17, and 8) were not rich in G.", "units": {"Kd": "nM"}, "values": [
      {"binder": "B9", "Kd": 50.4},
      {"binder": "B10", "Kd": 4.2},
      {"binder": "B11", "Kd": 104},
      {"binder": "B12", "Kd": 8.2},
      {"binder": "B13", "Kd": 38.2}
    ]},
    {"target": "T1, DKK1 (Dickkopf-1), full-length", "assay": "ELONA; room temperature", "settings": "tags: His6; label: biotin; G-rich, predicted G4", "protocol": "as §1, §3", "units": {"Kd": "nM"}, "values": [
      {"binder": "B14", "Kd": 1.1},
      {"binder": "B15", "Kd": 9.7},
      {"binder": "B16", "Kd": 344},
      {"binder": "B17", "Kd": 29.4}
    ]}
  ]
}
